Publication PMC5883317 (Journal of Molecular and Cellular Cardiology, 2018)
One block for each molecule: values may come before it.

How the values were obtained:
[1] = molecular target: F-actin (rabbit skeletal actin) (rabbit) (UniProt P68135)
[2] = molecular target: RLC-depleted isolated porcine β-cardiac myosin (porcine) (UniProt P79293); test: reconstitution of RLC-depleted myosin, SDS-PAGE densitometry
[3] = molecular target: cardiac myosin binding protein-C fragment spanning domains C0 to C2 (C0C2) (UniProt Q14896 1-452); test: MST
[4] = molecular target: T1, wildtype myosin regulatory light chain (WT-RLC), unlabeled recombinant (human, UniProt P10916 1-166); test: other fluorescence titration
T1 sequence (looked up): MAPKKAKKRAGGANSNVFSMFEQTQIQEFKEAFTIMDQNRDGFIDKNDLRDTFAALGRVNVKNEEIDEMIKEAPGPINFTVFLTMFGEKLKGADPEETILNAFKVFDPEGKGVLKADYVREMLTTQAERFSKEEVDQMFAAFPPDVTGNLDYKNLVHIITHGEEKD

Chain of cardiac myosin binding protein-C fragment spanning domains C0 to C2 (C0C2) (Q14896 1-452): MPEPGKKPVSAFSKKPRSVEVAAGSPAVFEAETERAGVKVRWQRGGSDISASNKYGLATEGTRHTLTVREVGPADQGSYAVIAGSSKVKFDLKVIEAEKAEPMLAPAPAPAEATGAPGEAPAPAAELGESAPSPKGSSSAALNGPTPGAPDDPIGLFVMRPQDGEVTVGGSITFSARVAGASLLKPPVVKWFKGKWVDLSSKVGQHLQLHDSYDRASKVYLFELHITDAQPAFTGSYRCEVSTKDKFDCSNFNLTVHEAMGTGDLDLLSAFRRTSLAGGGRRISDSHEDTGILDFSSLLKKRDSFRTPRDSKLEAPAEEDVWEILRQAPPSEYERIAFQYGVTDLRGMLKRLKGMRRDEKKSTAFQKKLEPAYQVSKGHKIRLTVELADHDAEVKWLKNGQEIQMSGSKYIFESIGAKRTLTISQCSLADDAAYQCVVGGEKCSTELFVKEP

B2: Alexa 647 labelled WT-RLC (natural protein, human, UniProt P10916 1-166, looked up)
chain: MAPKKAKKRAGGANSNVFSMFEQTQIQEFKEAFTIMDQNRDGFIDKNDLRDTFAALGRVNVKNEEIDEMIKEAPGPINFTVFLTMFGEKLKGADPEETILNAFKVFDPEGKGVLKADYVREMLTTQAERFSKEEVDQMFAAFPPDVTGNLDYKNLVHIITHGEEKD
modifications: Alexa 647 (labelled with Alexa 647-NHS; site not stated)
Kd [3]: 8.6 µM

B3: myosin regulatory light chain with the hypertrophic cardiomyopathy mutation R58Q (R58Q-RLC), unlabeled recombinant (natural protein)
chain: MAPKKAKKRAGGANSNVFSMFEQTQIQEFKEAFTIMDQNRDGFIDKNDLRDTFAALGQVNVKNEEIDEMIKEAPGPINFTVFLTMFGEKLKGADPEETILNAFKVFDPEGKGVLKADYVREMLTTQAERFSKEEVDQMFAAFPPDVTGNLDYKNLVHIITHGEEKD
Kd [2]: 4 µM

B4: Alexa 647 labelled R58Q-RLC (natural protein, human, UniProt P10916 1-166, looked up)
chain: MAPKKAKKRAGGANSNVFSMFEQTQIQEFKEAFTIMDQNRDGFIDKNDLRDTFAALGQVNVKNEEIDEMIKEAPGPINFTVFLTMFGEKLKGADPEETILNAFKVFDPEGKGVLKADYVREMLTTQAERFSKEEVDQMFAAFPPDVTGNLDYKNLVHIITHGEEKD
modifications: Alexa 647 (labelled with Alexa 647-NHS; site not stated)
Kd [3]: 9.7 µM

Molecule: ERRDSLLVIQWNIRAFMGVKNWPWMKLYFKIK [RLC binding site peptide of the human β-cardiac myosin heavy chain (amino acids 805–837)]
Kd [4]: < 0.5 µM

The next lines start with the values.

KM for F-actin of the F-actin activated myosin ATPase (Michaelis-Menten fit) [1]: 2.91 µM
Molecule: porcine β-cardiac myosin fully reconstituted with R58Q-RLC (from UniProt P79293 1-1935; P10916 1-166) (complex)

KM for F-actin of the F-actin activated myosin ATPase (Michaelis-Menten fit) [1]: 1.5 µM
Molecule: porcine β-cardiac myosin fully reconstituted with WT-RLC (from UniProt P79293 1-1935; P10916 1-166) (complex)

Kd [2]: 4 µM
B1: wildtype myosin regulatory light chain (WT-RLC), unlabeled recombinant (natural protein)
chain: MAPKKAKKRAGGANSNVFSMFEQTQIQEFKEAFTIMDQNRDGFIDKNDLRDTFAALGRVNVKNEEIDEMIKEAPGPINFTVFLTMFGEKLKGADPEETILNAFKVFDPEGKGVLKADYVREMLTTQAERFSKEEVDQMFAAFPPDVTGNLDYKNLVHIITHGEEKD
